Experimental data as given in the nanobody polyreactivity screen of Harvey et al. (2022).

Experiment: yeast display, Sf9 membrane polyspecificity reagent, FACS + sequencing; frameworks hold sequencing errors
Procedure, shortened: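 Using colony PCR, genes from sorted yeast display clones were amplified, then sequenced on MiSeq at 2 × 250 and filtered by CDR length. The clones had been stained with 10% biotinylated, detergent-solubilized Sf9 membrane reagent for 1 hour at 4 °C and sorted by FACS into low and high (top ~1%) gates on anti-HA and streptavidin fluorescence. Polyreactivity labels come from the gate of origin.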

| Sequence | polyreactivity (PSR sort gate) |
| --- | --- |
| QVQLVESGGGLVQAGGSLRLSCAASGRTFKNNAMGWYRQAPGKERELVAAISSNGGSTYYADSVKGRFTISRDNAKNTVYLQMNSLKPEDTAVYYCAADRTIVEYYYWGQGTQVTVSS | high polyreactivity |
| QVQLVESGGGLVQAGGSLRLSCAASGRTFKNYAMGWYRQAPGKERELVAAISSGGGRTKYADSVKGRFTISRDNAKNSVYLQMNSLKPEDTAVYYCAAAYYYRDDYWGQGTQVTVSS | high polyreactivity |
| QVQLVESGGGLVQAGGSLRLSCAASGRTFKPYVMGWYRQAPGKERELVAAISSRGDITYYADSVKCRFTISRHNAKNTVYLHMNSLKPEDTAVYYCNAGPAVRSAYSTPYYDYWGQGTQVTVSS | low polyreactivity |
| QVQLVESGGGLVQAGGSLRLSCAASGRTFKRKAKGWYRQAPGKEWEFVAVITGSGGSTYYADSVKGRFTISRDNAKNTVYLQMNSLKPEDTAVYYCAAALGLRSTSWGRRGGGGDYWGQGTQVTVSS | high polyreactivity |
| QVQLVESGGGLVQAGGSLRLSCAASGRTFKRYAMGWYRQAPGKERELVAAITASGGNTYYADSVKGRFTISRDNAKNTVYLQMNSLKPEDTAVYYCNAVTSVQARPRNYYYWGQGTQVTVSS | high polyreactivity |
| QVQLVESGGGLVQAGGSLRLSCAASGRTFKRYAMGWYRQAPGKERELVATISGNGGRTYYADSVKGRFTISRDNAKNTVYLQMNSLKPEDTAVYYCAALLYIRSVGYDYWGQGTQVTVSS | low polyreactivity |
| QVQLVESGGGLVQAGGSLRLSCAASGRTFKSYAMGWNRQAPGQERELVATITRDGRTNYADSVKGRFTISRDNAKNTVYLQLNSLKPEDTAVYYCNADSRYRYDYWGQGTQVTVSS | low polyreactivity |
| QVQLVESGGGLVQAGGSLRLSCAASGRTFKTYAMGWYRQAPGKERELVAAISRDGRTYYADSVKGRFTISRDNAKNTVYLQMNSLKPEDTAVYYCNKRSYRKGDYWGQGTQVTVSS | low polyreactivity |
| QVQLVESGGGLVQAGGSLRLSCAASGRTFKTYAMGWYSQAPGKERELVAAISRDGRTYYADSVKGRFTISRDNAKNTVYLQMNSLKPEDTAVYYCNKRSYRKGDYWGQGTQVTVSS | low polyreactivity |
| QVQLVESGGGLVQAGGSLRLSCAASGRTFKWNAMGWYRPAPGKERELVAAISISAGSTYYADSVKGRFTISRDNAKKTVYLQMNSLKPEDTAVYYCNTKYVRFYSRMDSWGQGTQVTVSS | low polyreactivity |
| QVQLVESGGGLVQAGGSLRLSCAASGRTFKWYAMGLYRQAPGKEREFVAGISRGAGRTYYADSVKGRFTISRDNAKNTVYLQMNSLKPEDTAVYYCAAVPSYHSTSPFYYWGQGTQVTVSS | high polyreactivity |
| QVQLVESGGGLVQAGGSLRLSCAASGRTFKYNAMGWYRQAPGKERELVAAITRSGSTYYADSVKGRFTISRDNAKNTVYLQMNSLKPEDTAVYYCNARIVNYGSYYYWGQGTQVTVSS | high polyreactivity |
| QVQLVESGGGLVQAGGSLRLSCAASGRTFKYNAMGWYRQAPGKERELVAVIRYSGGTTYYADSVKGRFTISRDNAKNTVYLQMNSLKPEDTAVYYCARGFTYQYSSFYYWGQGTQVTVSS | low polyreactivity |
| QVQLVESGGGLVQAGGSLRLSCAASGRTFKYNAMGWYRQAPGKERELVAVIRYSGGTTYYADSVKGRVTISRDNAKNTVYLQMNSLKPEDTAVYYCAADSWSRSVNYYYWGQGTQVTVSS | low polyreactivity |
| QVQLVESGGGLVQAGGSLRLSCAASGRTFKYNTMGWYRQAPGKERELVAVISRSGGRTYYADSVKGRFTISRDNAKNTVYLQMNSLKPEDTAVYYCAARARGNDGYYWGQGTQVTVSS | high polyreactivity |
| QVQLVESGGGLVQAGGSLRLSCAASGRTFKYYAKGWYRQAPGKERELVAAINSGGITYYADTVKGRFTISRDNEKNTVYLQRNSLKAEDTAVYYCAKVWKIGVLRYPSYGYYYWGQGTQVTVSS | high polyreactivity |
| QVQLVESGGGLVQAGGSLRLSCAASGRTFKYYAMGWYRPAPGKERELVAAISYNGGSTFYADSVKGRFTISRDNAKNTVYLQMNSLKPEDTAVYYCAAGPRGTGKYYWGQGTQVTVSS | high polyreactivity |
| QVQLVESGGGLVQAGGSLRLSCAASGRTFKYYAMGWYRQAPGKERELVAAISVSGGRTYYADSVKGRFTISRDNAKNTVYLQMNSLKPEDTAVYYCNAVRYVHPEDYWGQGTQVTVSS | high polyreactivity |
| QVQLVESGGGLVQAGGSLRLSCAASGRTFKYYAMGWYRQAPGKERELVAAITRSGSTNYADSVKGRFTISRDNAKNSVYLQMNSLKPEDTAVYYCAADVTLYYRGRRYYYWGQGTQVTVSS | high polyreactivity |
| QVQLVESGGGLVQAGGSLRLSCAASGRTFKYYAMGWYRQAPGKERELVAASTTGGSTHYADSVKGRFTISRDNAKNTVYLQMNSLKPEDTAVYYCAAGPFARYDYWGQGTQVTVSS | low polyreactivity |
| QVQLVESGGGLVQAGGSLRLSCAASGRTFKYYGMGWYRQAPGKERELVATISRSSSRTYYADSVKGRFTISRDNAKNTVYLQMNSLKPEDTAFYYCATLGPRSYAYDYWGQGTQVTVSS | high polyreactivity |
| QVQLVESGGGLVQAGGSLRLSCAASGRTFLAMGWYRQAPGKERELVAAISRTNYADSVKGRFTISRDNAKNTVYLQMNSLKPEDTAVYYCAKEYYSYEVYLGLSYVRRYDYWGQGTQVTVSS | low polyreactivity |

| Sequence | polyreactivity (PSR sort gate) |
| --- | --- |
| QVQLVESGGGLVQAGGSLRLSCAASGRTFLFYAMGWYRQAPGKERELVAAIRRGGSTYYADSVKGRFTISRDNAKNTVYLQMNSLKPEDTAVYYCNAGSALRRSYYRYYYWGQGTQVTVSS | high polyreactivity |
| QVQLVESGGGLVQAGGSLRLSCAASGRTFLGNAMGWYRQAPGKERELVAAIRYSGGRTYYADSVKGRFTISRDNAKNTVYLQMNSLKPEDTAVYYCAKDRRYYKAYDYWGQGTQVTVSS | low polyreactivity |
| QVQLVESGGGLVQAGGSLRLSCAASGRTFLGYAMGWYRQAPGKERELVAAISYSGSSTYYADSVKGRFTISRDNAKNTVYLQMNSLKPEDTAVYYCAAQFYFLFDYWGQGTQVTVSS | low polyreactivity |
| QVQLVESGGGLVQAGGSLRLSCAASGRTFLLYAMGWYRQAPGKERELVASITSDGRTNYADSVKGRFSISRDNAKNTVYLHMNSLKPEDTADYYCATVGKVHHRLVAMDYWGQGTQVTVSS | low polyreactivity |
| QVQLVESGGGLVQAGGSLRLSCAASGRTFLPYAMGWYRQAPGKERELVAAITYSGGRTYYADSVKGRFTISRDNAKNTVYLQMNSLKPEDTAVYYCAASLWFGGGYWGLGTQVTVSS | high polyreactivity |
| QVQLVESGGGLVQAGGSLRLSCAASGRTFLQYAMGWYRQAPRQERDLFATISFSGGSTYYADSVKGRITISRDNAKNTVYLLMNSLKPEDTAVYDCAKSQYRGRVYTGYDYWGQGTQVTVSA | low polyreactivity |
| QVQLVESGGGLVQAGGSLRLSCAASGRTFLRNAMGWYRQAPGKEREFVAAISTRDGRTYYADSVKGRFTISRDNAKNTVYLQMNSLKPEDTAVYYCNAVNTAGYYYYYAFFWDYDYWGQGTQVTVSS | high polyreactivity |
| QVQLVESGGGLVQAGGSLRLSCAASGRTFLRYAMGWYRQAPGKERELVAAITSSGGSTFYADSVKGRFTISRDNAKNTVYLQMNSLKPEDSAVYYCAASVGRGYYWGQGTQVTVSS | high polyreactivity |
| QVQLVESGGGLVQAGGSLRLSCAASGRTFLRYAMGWYRQAPGKERELVAAITYGGRTNYADSVKGRFTISRDNAKNTVYLQMNSLKPEDTAVYYCAADRTYYYGMRVDYWGQGTQVTVSS | high polyreactivity |
| QVQLVESGGGLVQAGGSLRLSCAASGRTFLRYRMGWYRQAPGKERELVATISRSGGGTTYADSVKGRFTISRYNAKNTVYLQMNSLKPEDTAVYYCNRDQTYPYQYNRWVGQYKYDYWGQGTQVTVSS | low polyreactivity |
| QVQLVESGGGLVQAGGSLRLSCAASGRTFLRYTMGWYRQAPGKERELVAAITYSGGSTYYADSVKGRFTISRDNAKNTVYLQMNSLKPEDTAVYYCAASYLWGYTEYYYWGQGTQVTVSS | high polyreactivity |
| QVQLVESGGGLVQAGGSLRLSCAASGRTFLSNAMGWYRQAPGKERELVADITFRGGNTYYADSVKGRFTISRGNAKNTVYLQMNSLKPEDTAVYYCAVLGYGRLSRVRYGYWGQGTQVTVSS | high polyreactivity |
| QVQLVESGGGLVQAGGSLRLSCAASGRTFLTNAMGWYRPAPGKERELVAAISSGASTNYADSVKGRFTISRDNAKNTVYLQMNSLKPEDTAVYYCAAQLTDYQSKTLSYDYWGQGTQVTVSS | low polyreactivity |
| QVQLVESGGGLVQAGGSLRLSCAASGRTFLTNAMGWYRQAPGKERELVAAISGGGDDTFYADSVKGRFTISRDNAKNTVYLQMNSLKPEDTAVYYCAADWYTPGWRKEEEYWGQGTQVTVSS | low polyreactivity |
| QVQLVESGGGLVQAGGSLRLSCAASGRTFLTNTMGWYRQAPGQEREWVATISNGGRTNYADSVKGRFTISRDNAKNTVYLQMNSLKPEDTAVYYCAKDYRAYHPHWYGSTFGWGQGTQVTVSS | high polyreactivity |
| QVQLVESGGGLVQAGGSLRLSCAASGRTFLTYAMGWYRQAPGKERELVAAISSSGVRTYYADSVKGRFTISRDNAKNTVYLQMNSLKPEDTAVYYCAAVGTGSSLRYDYWGQGSQVTVSS | high polyreactivity |
| QVQLVESGGGLVQAGGSLRLSCAASGRTFLVYSMGWYIQAPGKERELVAAISFSDGITYYADSVKGRFTISRDNAKNTVYLQMNRLKPEDTAVYYCATEILDYYYGSEYDYWGQGTQVTVTS | high polyreactivity |
| QVQLVESGGGLVQAGGSLRLSCAASGRTFLVYVMGWYRQAPGKERELVASITYSGGSTYYADSVKGRFTISRDNAKNTVYLQMNSLKPEDTAVYYCAAAQGRQPYRARGLYYYWGQGTQVTVSS | high polyreactivity |
| QVQLVESGGGLVQAGGSLRLSCAASGRTFLWNALGWYRQAPGKESELVARINLSGGRTYYADSVKGRFTISRDNAKNCVYLQMNSLKPEDTAVYYCAATVVRYRRDSWGQGTQVTVSS | low polyreactivity |
| QVQLVESGGGLVQAGGSLRLSCAASGRTFLYNALGWYRQAPGKERELVAAISWSGGSTYYADSVKGRFTISRDNAKNTVYLQMNSLKPEDTAVYYCAATGRRSGFFYWGQCTQVTVSS | high polyreactivity |
| QVQLVESGGGLVQAGGSLRLSCAASGRTFLYYAMGWSRQAPGKEMELVAAIRRGSSTYYADSVKGRFTISRDNAKITVYLQRNCPKPEDTAVYYCAARSFAITKYGSYDYWGQGTQVTVSS | high polyreactivity |
